Paper PMC5291076, “Analyzing native membrane protein assembly in nanodiscs by combined non-covalent mass spectrometry and synthetic biology” (eLife, 2017)

Assays:
[1] = target: Proteorhodopsin (green variant); assay: native MS; LILBID-MS of the membrane protein in MSP1E3D1 (DMPG) nanodiscs; 50 mM ammonium acetate pH 6.8; anionic mode; laser pulse energy between 9.5 and 23 mJ; unlabeled and (KcsA) 15N, 2H labeled samples
[2] = target: Proteorhodopsin (green variant); assay: native MS; LILBID-MS of PR synthesized in the presence of DH7PC and GDN and purified with 0.1% DH7PC; no nanodiscs
[3] = target: the molecule itself; assay: native MS; LILBID-MS of the membrane protein in MSP1E3D1 (DMPG) nanodiscs; 50 mM ammonium acetate pH 6.8; anionic mode; laser pulse energy between 9.5 and 23 mJ; unlabeled and (KcsA) 15N, 2H labeled samples
[4] = target: the molecule itself; assay: native MS; LILBID-MS of hHv1-VSD in nanodiscs of MSP1D1ΔH5 (19.49 kDa, His6-tag cleaved); unlabeled and 15N, 2H labeled samples

Molecule: Proteorhodopsin (green variant) (natural protein)
- stoichiometry N [1]: < 6
- stoichiometry N [2]: 2

B1: Phospho-N-acetylmuramyl-pentapeptide-transferase E.coli (enzyme, E. coli, UniProt P0A6W3 1-360, looked up)
chain: MLVWLAEHLVKYYSGFNVFSYLTFRAIVSLLTALFISLWMGPRMIAHLQKLSFGQVVRNDGPESHFSKRGTPTMGGIMILTAIVISVLLWAYPSNPYVWCVLVVLVGYGVIGFVDDYRKVVRKDTKGLIARWKYFWMSVIALGVAFALYLAGKDTPATQLVVPFFKDVMPQLGLFYILLAYFVIVGTGNAVNLTDGLDGLAIMPTVFVAGGFALVAWATGNMNFASYLHIPYLRHAGELVIVCTAIVGAGLGFLWFNTYPAQVFMGDVGSLALGGALGIIAVLLRQEFLLVIMGGVFVVETLSVILQVGSFKLRGQRIFRMAPIHHHYELKGWPEPRVIVRFWIISLMLVLIGLATLKVR
notes: MraY translocase of E. coli; theoretical mass of the construct 42.22 kDa; Dimer in DMPG and in DMPC/DMPG nanodiscs, monomer in DMPC nanodiscs; also called Ec-MraY; E. coli MraY; source: cell-free (CECF, E. coli A19 lysate), co-translationally inserted into nanodiscs, purified (Streptactin)
- stoichiometry N [3]: 2

B2: Human proton channel - voltage sensing domain (domain or fragment, UniProt Q96D96 75-223, looked up)
chain: APAPGPAPRAPLDFRGMLRKLFSSHRFQVIIICLVVLDALLVLAELILDLKIIQPDKNNYAAMVFHYMSITILVFFMMEIIFKLFVFRLEFFHHKFEILDAVVVVVSFILDIVLLFQEHQFEALGLLILLRLWRVARIINGIIISVKTR
modifications: in some samples uniformly 15N, 2H isotope labeled
notes: voltage-sensing domain of the human proton channel Hv1, residues 75-223; lacks the intracellular domain; theoretical mass of the construct 20.80 kDa; Construct in pET15b described in Li et al., 2015; a C-terminal StrepII tag was added here by QuickChange mutagenesis; also called hHv1-VSD; hHv-1-VSD
- stoichiometry N [4]: 2

B3: Phospho-N-acetylmuramyl-pentapeptide-transferase B.subtilis (enzyme, B. subtilis, UniProt Q03521 1-324, looked up)
chain: MLEQVILFTILMGFLISVLLSPILIPFLRRLKFGQSIREEGPKSHQKKSGTPTMGGVMIILSIIVTTIVMTQKFSEISPEMVLLLFVTLGYGLLGFLDDYIKVVMKRNLGLTSKQKLIGQIIIAVVFYAVYHYYNFATDIRIPGTDLSFDLGWAYFILVLFMLVGGSNAVNLTDGLDGLLSGTAAIAFGAFAILAWNQSQYDVAIFSVAVVGAVLGFLVFNAHPAKVFMGDTGSLALGGAIVTIAILTKLEILLVIIGGVFVIETLSVILQVISFKTTGKRIFKMSPLHHHYELVGWSEWRVVVTFWAAGLLLAVLGIYIEVWL
notes: MraY translocase of B. subtilis; theoretical mass of the construct 37.88 kDa; also called Bs-MraY; B. subtilis MraY; source: cell-free (CECF, E. coli A19 lysate), co-translationally inserted into nanodiscs, purified (Streptactin)
- stoichiometry N [3]: 2

B4: pH-gated potassium channel KcsA (natural protein)
chain: SALHWRAAGAATVLLVIVLLAGSYLAVLAERGAPGAQLITYPRALWWSVETATTVGYGDLYPVTLWGRLVAVVVMVAGITSFGLVTAALATWFVGREQERRGHFVRHSEKAAEEAYTRTTRALHERFDRLERMLDDNRR
modifications: in some samples uniformly 15N, 2H isotope labeled
notes: pH-gated potassium channel KcsA; theoretical mass of the construct 21.33 kDa (22.70 kDa labeled); The printed mass (21.33 kDa) is larger than the natural chain, so tags or extra residues beyond the StrepII tag may be present; source: cell-free (CECF, E. coli A19 lysate), co-translationally inserted into nanodiscs, purified (Streptactin)
- stoichiometry N [3]: 4

B5: Multidrug transporter EmrE (natural protein)
chain: MNPYIYLGGAILAEVIGTTLMKFSEGFTRLWPSVGTIICYCASFWLLAQTLAYIPTGIAYAIWSGVGIVLISLLSWGFFGQRLDLPAIIGMMLICAGVLIINLLSRSTPH
notes: small multidrug transporter EmrE; theoretical mass of the construct 13.00 kDa; source: cell-free (CECF, E. coli A19 lysate), co-translationally inserted into nanodiscs, purified (Streptactin)
- stoichiometry N [3]: 2
